# Measurements as given in US8129349B2, “Treatment of disease by inducing cell apoptosis” (The Regents of the University of California, priority 2000, dated 2012).
# T1: procaspase 1 (Homo sapiens, UniProt P29466)
# T1 construct: purchased Alexis Biochemicals 201-056
# T1 sequence (P29466 1-404): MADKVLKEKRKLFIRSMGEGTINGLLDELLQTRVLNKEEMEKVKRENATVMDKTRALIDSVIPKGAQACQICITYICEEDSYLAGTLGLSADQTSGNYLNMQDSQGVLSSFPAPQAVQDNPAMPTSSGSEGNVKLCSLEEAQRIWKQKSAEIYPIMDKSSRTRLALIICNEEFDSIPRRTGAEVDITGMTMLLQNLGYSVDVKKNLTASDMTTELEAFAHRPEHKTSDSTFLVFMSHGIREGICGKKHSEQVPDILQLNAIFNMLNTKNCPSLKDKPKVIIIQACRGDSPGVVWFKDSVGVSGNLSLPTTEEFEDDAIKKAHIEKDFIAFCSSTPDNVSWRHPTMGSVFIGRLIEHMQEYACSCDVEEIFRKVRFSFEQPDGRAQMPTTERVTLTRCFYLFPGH
# T2: caspase 1 (Homo sapiens, UniProt P29466)
# T2 construct: purchased Alexis Biochemicals 201-056
# T2 sequence (P29466 120-404): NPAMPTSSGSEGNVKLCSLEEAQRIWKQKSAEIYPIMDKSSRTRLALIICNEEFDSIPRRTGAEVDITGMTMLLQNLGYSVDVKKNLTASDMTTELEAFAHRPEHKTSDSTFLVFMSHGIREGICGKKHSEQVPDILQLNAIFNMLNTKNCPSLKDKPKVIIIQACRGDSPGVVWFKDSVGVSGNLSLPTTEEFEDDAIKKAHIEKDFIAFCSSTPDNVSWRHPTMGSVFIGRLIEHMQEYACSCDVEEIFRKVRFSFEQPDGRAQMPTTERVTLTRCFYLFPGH
# What was measured:
# procaspase 1 = target: T1, procaspase 1; assay: Co-immunoprecipitation of purified recombinant procaspase 1 with recombinant C/EBPβ peptides; type: binding; conditions: peptides 200 μM, procaspase 1 0.6 U, quantitated by densitometry
# Procedure: (§1) FIG. 5 provides results showing the direct association of C/EBPβ-Glu^217 with procaspases 1 and 8. […] Enzyme activity was measured in the absence (control) or presence of C/EBPβ peptides (200 μM) for 2 h, using a procaspases 1 (1U) (not shown) and 8 (0.2 μg) activity assay. Values are presented as the mean±one half the range of duplicates. Panel C provides results for cells cultured on a collagen type I matrix and incubated with the indicated cell permeant, purified synthetic N-acetyl, C-aldehyde C/EBPβ tetra-peptides (10 μM) or with recombinant C/EBPβ-HA peptides as indicated, together with the Chariot reagent (Active Motif) for 4 h. Control cells were incubated without peptides (P<0.05 for all peptides containing Ala^217).
# (§2) Purified recombinant C/EBPβ peptides, expressed as known in the art (See, Descombes et al., supra; and Buck et al. (1994), supra), and purified synthetic N-acetyl, C-aldehyde tetrapeptides (200 μM) (American Peptide Company) were assayed for their ability to inhibit the activity of purified human recombinant caspases 1 (catalogue # 201-056) and 8 (catalogue # 201-041-C005) (Alexis Biochemicals). The sequence of caspase 8 includes Ser217 through Asp479 cloned into an expression vector containing a 21 amino acid linker at the N-terminus. Thus, the prodomain (first 220 amino acids) is essentially missing. The fragment is cleaved at Asp385 and the active caspases are essentially identical to those identified in apoptotic cells (Stennicke and Salvesen, Meth. Enzymol., 322:91-100 (1997)). Caspase activity was determined by the release of the p-nitroaniline colorimetric (Alexis Biochemicals) substrate for caspase 1 (catalogue # 260-026) or 8 (catalogue # 260-045) within the linear part of the kinetic assay (Thornberry et al. (1997), supra; Stennicke and Salvesen, supra). Caspase 1 and 8 activity in cells was performed with colorimetric kits (catalogues # 850-211-K and 850-221-K) as described by the manufacturer (Alexis) (See also, Thornberry et al. (1997), supra). The caspase 8 inhibitor IETD was from Calbiochem (Catalogue # 218773).
# To delineate the role of C/EBPβ on the activation of procaspases 1 and 8, the self-activation of recombinant procaspases 1 and 8 was induced in vitro (Wilson et al., supra; Margolin et al., supra; and Earnshaw et al., supra), and the effect of purified recombinant C/EBPβ peptides, produced as described previously (Descombes et al., supra; and Buck et al., (1994), supra) on this process was determined. Consistent with the in vivo results described above, C/EBPβ-HA-Glu^217 and C/EBPβ 216-253-HA-Glu^217, but not C/EBPβ-HA-Ala^217, peptides associated with procaspases 1 and 8 (See, FIG. 5, Panel A). […]
# caspase 1 = target: T2, caspase 1; assay: In vitro self-activation of recombinant caspase 1; type: biochemical; conditions: peptides 200 μM, 2 h, procaspase 1 (1U)
# Procedure: as §1
# as §2, with “The fragment is cleaved at Asp385 and the active caspases are essentially identical to those identified in apoptotic cells (Stennicke and Salvesen, Meth. Enzymol., 322:91-100 (1997)).” left out, “Caspase 1 and 8 activity in cells was performed with colorimetric kits (catalogues # 850-211-K and 850-221-K) as described by the manufacturer (Alexis) (See also, Thornberry et al. (1997), supra). The caspase 8 inhibitor IETD was from Calbiochem (Catalogue # 218773).” left out
# To delineate the role of C/EBPβ on the activation of procaspases 1 and 8, the self-activation of recombinant procaspases 1 and 8 was induced in vitro (Wilson et al., supra; Margolin et al., supra; and Earnshaw et al., supra), and the effect of purified recombinant C/EBPβ peptides, produced as described previously (Descombes et al., supra; and Buck et al., (1994), supra) on this process was determined. […]
molecule,measurement,setting,value
"C/EBPβ-Glu^217: modified murine C/EBPβ with mutation of Thr^217 to glutamic acid (SEQ ID NO:4), phosphorylation mimic (protein, listed as Mus musculus) MHRLLAWDAACLPPPPAAFRPMEVANFYYEPDCLAYGAKAARAAPRAPAAEPAIGEHERAIDFSPYLEPLAPAADFAAPAPAHHDFLSDLFADDYGAKPSKKPADYGYVSLGRAGAKAAPPACFPPPPPAALKAEPGFEPADCKRADDAPAMAAGFPFALRAYLGYQATPSGSSGSLSTSSSSSPPGTPSPADAKAAPAACFAGPPAAPAKAKAKKZVDKLSDEYKMRRERNNIAVRKSRDKAKMRNLETQHKVLELTAENERLQKKVEQLSRELSTLRNLFKQLPEPLLASAGHC","Co-immunoprecipitation of procaspase 1, fold more than the Ala^217 peptides",procaspase 1,7 fold
same,Inhibition of in vitro self-activation of caspase 1,caspase 1,inhibited the in vitro self-activation
